1 substance from patent US20030228593A1 can be followed below.

The assay has as its target biotinylated 151AcPhe mutant GFP [GFP: P42212]. Put plainly: SAv-dependent gel-shift assay, 10% native PAGE.

Turning to “streptavidin (from UniProt P22629 37-163)”, the percent of GFP band retarded came to 80%.
